Earlier results on 1 molecule are cited in patent publication US20060188964A1, “Processing for producing and crystallizing G-protein coupled receptors” (priority 2004, published 2006).

This series relates to insulin action in the liver. The settings on record: mice; insulin clamp; recombinant protein from HEK-293T cells.

B1: resistin: mouse resistin, a highly disulfide-linked hormone naturally secreted from adipocytes; recombinant, hexameric (protein, UniProt Q99P87 21-114, looked up)
Resistin: SSMPLCPIDEAIDKKIKQDFNSLFPNAIKNIGLNCWTVSSRGKLASCPEGTAVLSCSCGSACGSWDIREEKVCHCQCARIDWTAARCCKLQVAS
As to B1, the “effect on insulin action” value was “potent antagonist of insulin action in the liver”.
